# Earlier results, collected in patent US20030175848A1, “Substituted dithiobisnitrobenzenes and their applications” (Institut Pasteur De Lille, priority 1998, published 2003).
# T1: human thioredoxin reductase (hTrxR) (Homo sapiens, UniProt Q16881)
# T1 construct: U of native hTrxR; from tissue; host or cells: human placenta
# T1 sequence (Q16881 151-649 limits assumed): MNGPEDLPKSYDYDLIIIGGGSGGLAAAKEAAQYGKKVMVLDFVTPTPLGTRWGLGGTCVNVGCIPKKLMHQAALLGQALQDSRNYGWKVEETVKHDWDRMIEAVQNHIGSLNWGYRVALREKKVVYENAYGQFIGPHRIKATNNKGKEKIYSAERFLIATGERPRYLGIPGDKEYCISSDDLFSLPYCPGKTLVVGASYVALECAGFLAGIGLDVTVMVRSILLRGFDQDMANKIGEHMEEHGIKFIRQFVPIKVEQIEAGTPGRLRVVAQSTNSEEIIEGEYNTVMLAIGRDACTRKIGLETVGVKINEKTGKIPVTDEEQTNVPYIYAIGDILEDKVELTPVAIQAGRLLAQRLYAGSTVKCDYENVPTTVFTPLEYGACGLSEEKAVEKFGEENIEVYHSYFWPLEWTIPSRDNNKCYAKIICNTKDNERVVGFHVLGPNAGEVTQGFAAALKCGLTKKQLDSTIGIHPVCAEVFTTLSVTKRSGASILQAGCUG
# B1: HTrx: human thioredoxin, physiological substrate of hTrxR (protein, UniProt P10599 2-105, looked up)
# Thioredoxin: VKQIESKTAFQEALDAAGDKLVVVDFSATWCGPCKMIKPFFHSLSEKYSNVIFLEVDVDDCQDVASECEVKCMPTFQFFKKGQKVGEFSGANKEKLEATINELV
# Biological target: T1, human thioredoxin reductase (hTrxR)
# Conditions: substrate of native hTrxR (placenta); references [29], [38]
molecule,measurement,value
B1,Km,4.3 µM
